The term Kd denotes the constant that tells how readily two partners part at equilibrium. As usually defined, the koff is a measure of how fast the partners let go of each other. As a reminder, the kon is the rate constant with which the complex forms.

We go through two molecules from EP4755449A2 (CHUGAI SEIYAKU KABUSHIKI KAISHA, dated 2026).

Changes are numbered by the printed parent chain. Read-outs that look alike come from different tables or passages of the source.

The target of test [1] is T1, human latent myostatin (human, UniProt O14793 25-266; O14793 267-375).
T1 construct: non-covalent complex of two propeptides and the mature homodimer; also called human myostatin latent form
T1 sequence 1: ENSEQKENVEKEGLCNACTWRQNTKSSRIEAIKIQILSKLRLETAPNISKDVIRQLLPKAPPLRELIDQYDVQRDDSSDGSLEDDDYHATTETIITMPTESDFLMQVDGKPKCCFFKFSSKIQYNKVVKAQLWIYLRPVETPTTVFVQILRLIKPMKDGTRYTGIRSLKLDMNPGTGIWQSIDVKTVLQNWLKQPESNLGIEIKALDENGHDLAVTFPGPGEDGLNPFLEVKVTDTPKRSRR
T1 sequence 2: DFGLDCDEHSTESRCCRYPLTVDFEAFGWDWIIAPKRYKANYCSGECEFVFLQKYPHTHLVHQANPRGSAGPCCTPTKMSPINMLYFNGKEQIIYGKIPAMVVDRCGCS
The test can be described thus: SPR 37C pH7.4.

In test [2] the target is T2, mouse latent myostatin (mouse, UniProt O08689 26-267; O08689 268-376).
T2 sequence 1: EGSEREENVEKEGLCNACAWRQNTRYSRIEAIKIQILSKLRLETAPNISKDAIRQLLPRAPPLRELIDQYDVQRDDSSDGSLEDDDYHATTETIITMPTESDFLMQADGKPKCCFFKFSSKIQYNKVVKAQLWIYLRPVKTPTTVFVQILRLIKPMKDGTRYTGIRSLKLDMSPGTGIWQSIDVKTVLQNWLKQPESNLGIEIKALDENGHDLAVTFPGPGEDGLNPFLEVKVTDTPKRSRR
T2 sequence 2: T1 sequence 2
Put plainly: SPR 37C pH7.4.

Test [3] has as its target T3, cynomolgus monkey latent myostatin (cynomolgus monkey, UniProt Q95J86 25-266; Q95J86 267-375, limits assumed).
T3 construct: also called cyno latent myostatin
T3 sequence 1: T1 sequence 1 with V52A
T3 sequence 2: T1 sequence 2
Put plainly: SPR 37C pH7.4.

Test [4] has as its target T1, human latent myostatin. The test can be described thus: SPR 37C pH7.4. The source holds these as a separate data set.
Test [5] concerns the target T4, Human GDF11 with Flag-tag on N-terminus (human, UniProt O95390 11-407).
T4 construct: processing of the expressed protein not described; also called Flag-hGDF11; human latent GDF11
T4 sequence: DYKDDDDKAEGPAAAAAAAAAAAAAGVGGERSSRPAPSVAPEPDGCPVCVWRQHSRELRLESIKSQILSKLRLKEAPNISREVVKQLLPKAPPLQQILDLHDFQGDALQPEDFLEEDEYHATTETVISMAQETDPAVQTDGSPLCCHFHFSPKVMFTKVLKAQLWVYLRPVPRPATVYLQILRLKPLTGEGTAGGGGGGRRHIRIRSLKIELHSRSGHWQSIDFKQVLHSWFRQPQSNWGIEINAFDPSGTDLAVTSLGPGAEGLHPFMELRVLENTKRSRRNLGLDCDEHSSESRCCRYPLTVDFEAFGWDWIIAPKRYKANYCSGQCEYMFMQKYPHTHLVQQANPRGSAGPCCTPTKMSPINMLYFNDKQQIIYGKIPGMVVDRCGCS
The test can be described thus: ELISA, biotinylated antigen on streptavidin plate.

Test [6] addresses T5, mature myostatin (human (mature form 100% identical in …, UniProt O08689 268-376 (mouse entry))).
T5 construct: biotinylated in the ELISA; also called myostatin mature form; active myostatin
T5 sequence: T1 sequence 2
Put plainly: ELISA, biotinylated antigen on streptavidin plate. For orientation: ELISA stands for enzyme-linked immunosorbent assay.

In test [7] the target is T1, human latent myostatin. The test can be described thus: SPR, dissociation phase at pH5.8. Background: In SPR one partner is held on a chip, and binding of the other changes the refractive index at the surface.
In test [8] the target is T1, human latent myostatin. The test can be described thus: SPR, dissociation phase at pH5.8. The source holds these as a separate data set.

B1: MS_MST1032Ha-G1m/MST1032La-k0MC (antibody, human IgG1, kappa, V domains shown)
VH: QSLEESGGRLVTPGGSLTVTCRVSGIDLSSYDISWVRQAPGKGLEWIGIISYAGSTYYASWAKGRFTISKTSTTVDLKMTSLTTEDTATYFCARGVPAYSTGGDLWGPGTLVTVSS
VL: AQVLTQTASSVSAAVGGTVTINCQSSQSVYDNNWLSWFQQKPGQPPKLLIYWASTLASGVPSRFKGSGSGTQFTLTISDLECDDAATYYCAGGYGGGLYAFGGGTKVEIKR
notes: rabbit/human chimeric; also called MST1032-G1m
B1: the Kd in test [1] was 76.6 pM; in test [2] it was 57.9 pM; in test [3], 71.7 pM; in test [4], 76.6 pM. Further, the off-rate constant (koff) was found to be 8.65e-05 s⁻¹ in test [1], 8.16e-05 s⁻¹ in test [2], 7.79e-05 s⁻¹ in test [3] and 8.65e-05 s⁻¹ in test [4]. Besides, the kon amounted to 1.13e+06 M⁻¹ s⁻¹ in test [1], 1.41e+06 M⁻¹ s⁻¹ in test [2], 1.09e+06 M⁻¹ s⁻¹ in test [3] and 1.13e+06 M⁻¹ s⁻¹ in test [4]. Besides, the binding result in test [5] and in test [6] was “no binding” throughout.

B2: Ab002 (M103205H001/M103202L000) (antibody, V domains shown)
VH: QVTLKESGPVLVKPTETLTLTCTVSGIDLSHYDISWVRQAPGKGLEWVGIISYAGSTYYASWAKGRLTISKDTSKNQVVLTMTNMDPVDTATYYCARGVPAYSTGGDLWGQGTLVTVSS
VL: DIVMTQSPATLSLSPGERATLSCQSSQSVYDNNWLSWFQQKPGQPPKLLIYWASTLASGVPSRFSGSGSGTDFTLTISSLQPEDAATYYCAGGYGGGLYAFGQGTKVEIKR
notes: variant of MS1032LO00-SG1
Molecule B2 returned a koff in test [7] of 0.00609 s⁻¹. For the same molecule, the “fold faster dissociation rate at pH5.8 than Ab001” value in test [8] came to 200 fold.
